Values of other authors as cited in publication PMC7564214.

Target: LC3B (Homo sapiens) (UniProt Q9GZQ8)

In the case of TRIM5α (from UniProt Q9C035), the Kd is listed as 100 µM.
